Source: the domain aggregation screens of Martell et al. (2025)

assay: soluble fraction after stress (log2 fold change); higher = more stays soluble; pooled small domains, quantitative proteomics; details: stress: pH 4
Method in brief: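 Custom libraries of small protein domains were pooled and exposed to pH 4. High-throughput quantitative proteomics then measured the log2 fold change in the amount of each domain still soluble, with higher values meaning more stayed soluble. This soluble-fraction fold change stands for aggregation propensity.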

Sequence | soluble fraction (log2)
HMQKKYLAVKEYLLEQINSGAYQPDEPIPPEREMAAMLGVNRMTLRRAVEELMYEGLLIRKKGSGTFLTK | -0.714
HMQKLSPKQRRGNIIELIKENPTITAKNISTIFNLNQRTIERDLAKLTEEGYIKYEGSSKDGKWVFL | ≥ 0.43
HMQKNKSVLFKDIVIAFNQNPKKLFNYKQLAADLDIHSEAERMLISQLLNDLKDQNFLEEVERGKYKLKL | -0.479
HMQKPIKPVKMHTVGPKENLSSIGRMYEVNGRVLANYNNIDYDKGLTIGQVLKIPPKGTTLEQVT | 0.0149
HMQKTIDWSQVDKEQYLSAMERSPVNDLEIKAILAKALTSDINNRELFMKGLDHSYYFEGYQLFKSE | -0.939
HMQKTQVVEVAGKSYQLTKMDARTGSYVAFKVAGVLAPSGGKTAEMAAALMGMPRKDFDELQSLLLRTV | ≥ 0.43
HMQKYSTIIGVIELRQSGIGYRTTKKRYNIGNSTVTLIMNRFHELGLSLEELKAMPPKKVEEAFYPPE | -0.0306
HMQLASILDDIPGIGKKRKENLLTHFGSFSKIQSADIDALAEVPGISRDLAETIHTYLKTHQ | -0.0521
HMQLDLSDPSKNKLDSIVSLPIKSLKAVEANGEILFMSENGRFVLRGQLYDIWYKDTLDTSAQIQDAATRI | 0.179
HMQLDLTSTLDHMYKQMRNDHPRALLMAVEKEMVLRALKETDGNQLRASDILGISRSTLRKRIEEFDINS | -0.257
HMQLEPLITSVIPVNFAKAGEVATTIKGKEVGLVSDRGSITAESRTNVLIVKDIKKNVDDISAMVKRLD | -0.0177
HMQLGEEAGDELVAIVRSVINDNDKALADYLAGKSSALKFLLGQVMRQTKGRADHALVQSLLEAELEAL | -0.586
HMQLHDTMKRVYEALDISEQKLAESLGLKLSTIINWQKNGISKIGINKLNQTFGLDMQWILTGQGEPFI | -0.0735
HMQLLDIGSAVRIIREPYFGRLGTVVELPPELMEIESGTHARVLKAKLDDGTVAVVPRANVEIIVE | -1.34
HMQLNNTDELEKIILKILENNPKQVDQFLAGKQKLLGFFVGQAMRATSGKANPKTVNDLLEKFLSK | -0.335
HMQLPDLDEIRQMRKRLDLSQRELAALAGVSQSLIAKIEKGSIDPSYDNVRKIFNAFENILKKRALE | -0.495
HMQLPIGDVKLSVEHLSSGTALQDISFEVHRGEIFGFLGLVGAGRSETAETIFGLREKTDGKISIDGTVL | 0.117
HMQLPTNAAAILRYLSSGAVKGVGSATAVRIVEKFGEETLNILEQDPLRLAEIRGISRDKAKKIGEDFASQ | 0.0714
HMQLSMLPYGFARRHGVLLVEQDEQPTLIHRAGITATVIAEVQRVAGQIDAWRLVDDARFDQQLAEVYRD | -1.41
HMQLTPAQHAILAYAIEHTGGKIEWFPDNIKGGARTKVLEGLFNKALITRDSTDWFVAAEGYDALGR | 0.428
HMQLYSLEVLSKKKVDLIENNKNLINLYFNKENGEYSYRLIFKNRKELYQVKDTLDNSSDVVSIKLDL | -0.181
HMQMGLNEAYRVLHVSPDAPWREVQSAYKERMAKSHPDKVSHLGEELQEKAKELTVEINKAYNTIKRYKK | -0.0378
HMQMKDRILRIMEHEGISPSKFAEEIGIQRSAMSHIISGRNNPSLDVLTKIMQRFTYVDTDWLLFGKGSMV | -0.334

Sequence | soluble fraction (log2)
HMQMPDLTGKPRAEAVTTLAALGFTDVKFLDASAGDEPLDYVADQVVRTSPEAGAALASGQQITIYLAT | -0.0191
HMQMSDTSMIRDLVLQVLAENPQSIEDFKNGKDRAVGFLVGMVMKKSQGKANPQITNQMIVEELKK | -0.277
HMQMSERENTILLTKRYIERGEYERAMNLLDSLLIKNALDEEALAMIDEIIALKAGASLQDFPRY | -1.48
HMQMTTPQMVPLFTDLSVDDSASIIKDLERQAVPYQIKSDGAIIMVPKDKVTRLRMKLAESGLPK | 0.402
HMQNDDLTKLDGIGPYIEQRLNDIGIYNYEQLSKLNTEDIQKITELIDFFPGRIERDNWVSQAQLLKI | -0.807
HMQNDILIQADEIVGDYFDMDKEALKMNKQAVIADIEKRQATAQGDEASALHYAKQKVENEFEDDGSQKD | -0.233
HMQNKFLDIVGEIEVKAVDYYLLKDTSGLVIKFPKNLVFANGLKIADNKIGLTVSLYGAWVHEET | -0.498
HMQNKYIIKQGNSGELVEVLQELLNLKQDGVFGPQTKKAVIAFQQKHKLVADGIVGPMSWRKLNFNPEELF | -0.282
HMQNLISSDEAKNIALQHANLTDNQVTFIKVSKDYDDGIHIYEVEFHYNNREYNYDINAINGTILSYEQ | -0.173
HMQNNKITIYISGAVNRPGIVTIESDKRLYDAVELLGGTTKEADLNGVNLSVRLEDEQHYIIPKIGEA | -0.491
HMQNNWFYEENGQRKGPVSENEMVQFIKSSVISHGTSVWKQGFPDWLKVENTDLRVHLDNSAP | -0.611
HMQNREQNILDGKSILDKELKRVGLLNQSAAIMAQEMKFNSQDDLFAALGSGATRIGQIINHLQKQS | 0.0793
HMQNSMTTTPDVVGKTGTFAEQMLKAANLNVQFAGDSSGKVVAQDVEAGTSAAYGTIITLTMDS | 0.25
HMQNVKIKAEVKGEVISPGVYELDEESRIQDLIDASGGFSDKAYYDNINLSMKLKDEMVLVVYDKDKI | -1.35
HMQPADYSDLYAAAKSAGEADMRAAFALTDKQERTAAVNAARETIKAALSEEQLADANLGSALKKLEAGV | -0.261
HMQPASPELNNQEKKVLQALPENEVIHIDELSDKIQIPVGELLTVLLSLEMKETVIQEPGKFFRRR | -0.886
HMQPDFLDAKASLALLGVRPQTLYAYVSRGAIRSVPQPGTKAHLYSRSDIERVMARAAARAG | -0.019
HMQPDYRVLYSNFSDKDGGAIVAALEKMNVPYKFSEGGSAILVPAGQVHQARLKLAADGLPK | 0.205
HMQPLGHDLTERELDVLALMVTGMNNSEIADKLVVSRSTIKYHVSNILSKLQATSRTEAVAYALQQNLVH | -1.41
HMQPQIDFEIDVEVRASSLRIVAAPNSDVLVATVGRGEHVVQLTYPKDGWVMIRTADDRVGFVPESLLL | -0.254
HMQPQYSVLFSNIEEKDGGSIITLLQQGNVPYKVENGGTTILVPANRANELRLTLAAQGLPK | 0.223
HMQPVLSDAEVNDLKNIAGGERGYNQLMDWAGNNLTAQDAKSYDDVLATGNKAAISFAIKALMGQYEDAN | -0.453
HMQQEAVNLVQSRGQQAIEPVHIMQGVMKVGENVTNFIFQKLGMNGQQVALVVDKQIDSLPKVSGGEPYL | -0.0637

Sequence | soluble fraction (log2)
HMQQEAVSGKLLQLDLAKKEGRLSTDLGREVLFHIPKPELFVHLSVGQRIIIKLDAGQEAVGV | 0.0773
HMQQELDAFKLLITVSGVGPKAAMAVLSVLPPDRLSIAVSSGDVKSIQSAQGVGKKTAERIVLELKDKM | -0.976
HMQQIEIEEPITVKNLSAVAGLKASEIIAKLMKLGVMSTINQVMERQHAEEIAGEYGFELVVK | -0.154
HMQQISDPQVLRPMAEEVLHQSQKVVQDYKGGNKNAFHALVGQMMKKTQGKGNPQVIGQVLSELLDE | -0.284
HMQQKNWIVRDGDGKIYGPFTTEQVLVQIDRGYFVGGEEVALYPGGRWIAISGAPEFYDRLLDALAMEG | -1.29
HMQQQLLHIVFGGELKDVTGIEFEDLSKMDFVGAFSNYKDAYDAWKSAAQRTVDHAEMRYFILHAHKLL | -2.31
HMQQRTVEHVDTAVEALALSIGERAGVDLPYMAHLTGKTQEDLIEDLTGVIFPVPGTEPLRYVTADDYLS | -0.835
HMQQSVSSLVRRYMLQTIPGINFSLKSTALALNMSDRTLQRKLLSENTSYQIILDDVRKELAIKYLKE | -0.43
HMQQVIQSGQKVQLMATDGSFQVSAEGVALKNGSVGEVIGVRMPSGRVISGVVSASGAVEVR | 0.0769
HMQQVLGDVNEDDKVDFLDAIVVLRHDAEIIQLTDNQMKAAEVNKDGKVDFLDAIMILRYDAEIIGS | -0.196
HMQRDDMQIDRLIQIVFLLLSRNNLTAKQLAEELGVSTRTIYRDINILSVAGIPITSQKGYGGGLSLLQG | -0.261
HMQRDELRYDQFLTALQNKEFTQLNVRFDDYTYLVTGTFQSGRPFSTRGPVSEEFIRLIESSGVQVTWLPM | -1.28
HMQRDERYVYHTVLAGETIYSLSRKFNVTMDELLESNPALRSGVLTTGSEIRVLKAQMAQNFD | 0.383
HMQRQGTVATQQTPLNIRSQPSLSAQVIGQAPKGATVAILGESGDWYQIRYQNITGYSSKQYI | ≥ 0.43
HMQRSVEDVFVQLRNGMDTYDMTQIEDALRILHGMELSTAQRDLLDKVQEAYNDLEYETGAALLAGFERIK | -0.981
HMQRYFINEPVPEDQRLVLPKDIAHHLVDVLRAEQNDELEVALNDQKVYLARLISLNPATVELQSDLG | -0.176
HMQRYFLEEAYQPSEKFELSAEAFHHIVHVMRMKPKDRVYLAFSDQQVIIAEITEITEEKVYLTEIEKEE | -1.63
HMQRYYDVLGLQKGVSPEELKKTYRELSKKYHPDAHHNSPLRDLAEAKFKEINEAYEKIKEFLDNNF | -0.597
HMQSAKLSYSDFMQKVNAGDVVSVKIQGPKISGVTTGGGKFMTYAPEDPTLVSTLMQKKVEVMAEP | 0.173
HMQSAMALTKDLIEQQGKYYHRGQPFTGVGFAKNKKGKFVTEEPFKNGLLHGKRVNYDHNGHVLAREK | -0.12
HMQSEESTHIGERMLNQALRAMHVEPSAVKEKQWEKLIRDYSVKNKQDILTDIGLGKRQSVMVAHQLLAI | -0.028
HMQSEISRIGRILKERRLQLGYTQEYAAEKAGISYSYYTKIERGQQLPSLEVAMVLSKTFSLSMDRWL | -0.599
HMQSFIEELLPVVDNFERSLAVVDPSDEIKNFLKGYEMIYNQLMEVLKSQGVEVIKTEGEEFDPNFHQA | -0.776
